Values belong to the substance of their own block, whether it stands above or below them. Positions of bridges follow the written chain, without caps; N, C: chain ends. No end group written: not given here.
Legend:
hK2 [1] = target: T1, hK2 (Homo sapiens, UniProt P20151); experiment: Cross-inhibition test: inhibition of phage binding to captured hK2 by synthetic peptides (IFMA); conditions: synthetic peptide 5 μM, FIG. 1
T1 construct: made in house
Protocol: The phage IFMA was performed essentially as described (Wu, Leinonen et al. 2000). In this assay, 50 ng of hK2 in 200 μL of assay buffer was captured onto wells coated with MAb 5E4. After washing, 2.5 μL of phage (10^8-10^9 infectious particles) and 200 μL assay buffer were added to wells. After incubation for 1 h, the wells were washed and filled with 200 μL of assay buffer containing 100 ng Eu-labeled anti-phage polyclonal antibody recognizing the M13 coat protein of the phage. After incubation for 60 min, the wells were washed 4 times, and enhancement solution (Perkin Elmer-Wallac) was added. The fluorescence was quantified with a Victor fluorometer in time resolved mode (Perkin Elmer-Wallac).
The relative binding sites of the peptides on hK2 were mapped by competition experiments with chemically synthesized and phage peptides. The protocol was based on the IFMA method described above except that phages and the synthetic peptides were reacted together with hK2. Briefly, each of the synthetic peptides at 5 μM concentration was added into the wells in which hK2 had been captured by MAb 5E4. After incubation for 30 min each phage was added. After 1 h incubation, the wells were washed and the assay was as described above for IFMA.

trypsin 2 = target: T2, trypsin 2 (Homo sapiens, UniProt P07478); experiment: Specificity: effect on enzyme activity of human trypsin 2 (substrate S-2222); assay type: biochemical
T2 construct: made in house
T2 sequence (P07478 24-247): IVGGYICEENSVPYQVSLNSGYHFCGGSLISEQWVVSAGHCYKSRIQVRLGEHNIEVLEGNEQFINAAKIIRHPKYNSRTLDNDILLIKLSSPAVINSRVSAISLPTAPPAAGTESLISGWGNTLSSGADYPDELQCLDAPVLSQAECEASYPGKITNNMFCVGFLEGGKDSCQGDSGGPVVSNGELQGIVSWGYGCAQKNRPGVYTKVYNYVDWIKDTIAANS
Protocol: (§1) The effect of the peptides on the enzyme activity of hK2 was studied by using the chromogenic substrate S-2302 (H-D-Pro-Phe-Arg-pNA). HK2 (0.17 μM) was incubated with a 100-1000-fold molar excess of synthetic peptides in 20 mM Tris-buffer pH 8.0 containing 0.1% BSA for 30 minutes at room temperature. After addition of the substrate to a final concentration of 0.2 mM the absorbance was monitored at 405 nm at 5-10 min intervals for 1 h on a Victor 1420 Multilabel fluorometer (PerkinElmer-Wallac, Turku, Finland)
(§2) The specificity of the peptides was analyzed by studying their effect on the activity of other serine proteases including α-chylotrypsin, bovine trypsin, human trypsin 1, trypsin 2 and trypsin 3, urokinase, thrombin, plasmin, plasma kallikrein and PSA. The assay was as described above for hK2 except that the substrate for PSA and α-chymotrypsin was S-2586 (MeO-Suc-Arg-Pro-Tyr-pNA)(Chromogenix), S-2444 for urokinase, S-2238 for thrombin, S-2403 for plasmin, S-2302 for plasma kallikrein and that for various forms of trypsin was S-2222 (CO-Ile-Glu-(OR)-Gly-Arg-pNA)(Chromogenix).

hK2 [2] = target: T1, hK2; experiment: Effect of the peptides on the enzyme activity of hK2 (chromogenic substrate S-2302); assay type: biochemical; conditions: for inhibition of hK2 enzyme activity: 0.17 μM hK2, 100-fold molar excess of peptide; for effect on the enzyme activity of hK2: incubation of hK2 with synthetic peptide (FIG. 2); for inhibition (percent inhibition of hK2): enzymatic activity of hK2, chromogenic substrate, 405 nm
Protocol: “Inhibition”, as used in the present context, stands for an inhibitory action on the proteolytic activity of hK2.
as §1

α-chymotrypsin = experiment: Specificity: effect on enzyme activity of α-chymotrypsin (substrate S-2586); assay type: biochemical
Protocol: as §1, §2

plasmin = target: T3, plasmin (Homo sapiens, UniProt P00747); experiment: Specificity: effect on enzyme activity of plasmin (substrate S-2403); assay type: biochemical
T3 construct: Human plasmin, thrombin and plasma kallikrein were from Sigma; purchased Sigma
T3 sequence (P00747 97-580 partner limits assumed): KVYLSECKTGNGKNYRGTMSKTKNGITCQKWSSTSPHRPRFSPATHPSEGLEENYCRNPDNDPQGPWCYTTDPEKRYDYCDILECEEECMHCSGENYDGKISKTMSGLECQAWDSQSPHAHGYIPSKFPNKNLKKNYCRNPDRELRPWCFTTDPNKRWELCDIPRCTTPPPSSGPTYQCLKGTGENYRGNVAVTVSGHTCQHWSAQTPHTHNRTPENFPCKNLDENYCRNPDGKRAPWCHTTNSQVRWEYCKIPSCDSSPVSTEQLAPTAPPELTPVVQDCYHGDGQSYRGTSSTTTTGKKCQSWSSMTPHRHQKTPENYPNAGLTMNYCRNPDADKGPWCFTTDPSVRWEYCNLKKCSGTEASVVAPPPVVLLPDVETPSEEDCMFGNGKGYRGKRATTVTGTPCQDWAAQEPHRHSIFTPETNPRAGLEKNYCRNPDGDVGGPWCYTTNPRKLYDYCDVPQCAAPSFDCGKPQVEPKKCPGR
T3 sequence (P00747 581-810 limits assumed): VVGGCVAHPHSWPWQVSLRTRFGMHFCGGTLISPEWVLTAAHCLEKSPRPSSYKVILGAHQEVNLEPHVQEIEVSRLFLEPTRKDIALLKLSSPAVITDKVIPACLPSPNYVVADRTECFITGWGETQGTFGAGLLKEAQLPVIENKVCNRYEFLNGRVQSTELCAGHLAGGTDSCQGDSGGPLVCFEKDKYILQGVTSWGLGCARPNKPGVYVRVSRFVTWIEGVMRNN
Protocol: as §1, §2

thrombin = target: T4, thrombin (Homo sapiens, UniProt P00734); experiment: Specificity: effect on enzyme activity of thrombin (substrate S-2238); assay type: biochemical
T4 construct: Human plasmin, thrombin and plasma kallikrein were from Sigma; purchased Sigma
Protocol: as §1, §2

bovine trypsin = target: T5, bovine trypsin (Bos taurus, UniProt P00760); experiment: Specificity: effect on enzyme activity of bovine trypsin (substrate S-2222); assay type: biochemical
T5 construct: purchased Athens Research and Technology, Athens, Ga., USA
T5 sequence (P00760 24-246): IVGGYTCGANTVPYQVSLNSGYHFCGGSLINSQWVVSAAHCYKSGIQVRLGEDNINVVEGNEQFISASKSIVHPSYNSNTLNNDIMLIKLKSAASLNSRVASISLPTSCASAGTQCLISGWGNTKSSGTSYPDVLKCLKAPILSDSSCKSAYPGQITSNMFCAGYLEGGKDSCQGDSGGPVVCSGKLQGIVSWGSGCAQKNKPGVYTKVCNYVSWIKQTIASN
Protocol: as §1, §2

PSA = target: T6, PSA (Homo sapiens, UniProt P07288); experiment: Specificity: effect on enzyme activity of PSA (substrate S-2586); assay type: biochemical
T6 construct: PSA was purified from human seminal plasma as described (Zhang et al. 1995); from tissue; host or cells: human seminal plasma
T6 sequence (P07288 25-261): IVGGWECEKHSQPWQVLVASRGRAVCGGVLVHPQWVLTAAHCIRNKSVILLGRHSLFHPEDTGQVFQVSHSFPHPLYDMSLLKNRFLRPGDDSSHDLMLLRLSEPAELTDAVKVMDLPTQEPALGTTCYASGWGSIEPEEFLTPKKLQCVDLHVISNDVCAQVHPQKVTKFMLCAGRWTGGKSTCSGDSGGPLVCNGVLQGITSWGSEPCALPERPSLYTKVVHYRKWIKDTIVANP
Protocol: as §1, §2

plasma kallikrein = target: T7, plasma kallikrein (Homo sapiens, UniProt P03952); experiment: Specificity: effect on enzyme activity of plasma kallikrein (substrate S-2302); assay type: biochemical
T7 construct: Human plasmin, thrombin and plasma kallikrein were from Sigma; purchased Sigma
T7 sequence (P03952 20-390 partner limits assumed): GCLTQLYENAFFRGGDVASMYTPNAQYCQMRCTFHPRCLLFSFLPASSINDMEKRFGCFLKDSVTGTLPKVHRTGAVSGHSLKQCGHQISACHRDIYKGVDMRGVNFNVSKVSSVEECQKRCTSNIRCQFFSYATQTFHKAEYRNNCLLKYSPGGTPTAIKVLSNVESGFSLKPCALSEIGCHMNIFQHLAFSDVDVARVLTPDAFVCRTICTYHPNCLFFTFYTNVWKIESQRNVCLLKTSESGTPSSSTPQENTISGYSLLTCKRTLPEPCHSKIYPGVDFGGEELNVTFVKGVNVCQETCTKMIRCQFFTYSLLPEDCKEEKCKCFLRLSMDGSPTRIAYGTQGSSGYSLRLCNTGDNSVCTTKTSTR
T7 sequence (P03952 391-638 limits assumed): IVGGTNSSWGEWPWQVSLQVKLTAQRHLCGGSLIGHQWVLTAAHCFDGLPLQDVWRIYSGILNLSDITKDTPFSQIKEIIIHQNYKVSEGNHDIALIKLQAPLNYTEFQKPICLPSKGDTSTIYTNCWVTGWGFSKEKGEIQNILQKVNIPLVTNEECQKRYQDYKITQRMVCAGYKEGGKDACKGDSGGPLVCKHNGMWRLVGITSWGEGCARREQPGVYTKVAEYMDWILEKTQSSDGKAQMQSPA
Protocol: as §1, §2

urokinase = urokinase (Homo sapiens, UniProt P00749); experiment: Specificity: effect on enzyme activity of urokinase (substrate S-2444); assay type: biochemical
Protocol: as §1, §2

human trypsin 1 = target: T8, human trypsin 1 (Homo sapiens, UniProt P07477); experiment: Specificity: effect on enzyme activity of human trypsin 1 (substrate S-2222); assay type: biochemical
T8 construct: made in house
Protocol: as §1, §2

trypsin 3 = target: T9, trypsin 3 (Homo sapiens, UniProt P35030); experiment: Specificity: effect on enzyme activity of human trypsin 3 (substrate S-2222); assay type: biochemical
T9 construct: made in house
T9 sequence (P35030 1-304): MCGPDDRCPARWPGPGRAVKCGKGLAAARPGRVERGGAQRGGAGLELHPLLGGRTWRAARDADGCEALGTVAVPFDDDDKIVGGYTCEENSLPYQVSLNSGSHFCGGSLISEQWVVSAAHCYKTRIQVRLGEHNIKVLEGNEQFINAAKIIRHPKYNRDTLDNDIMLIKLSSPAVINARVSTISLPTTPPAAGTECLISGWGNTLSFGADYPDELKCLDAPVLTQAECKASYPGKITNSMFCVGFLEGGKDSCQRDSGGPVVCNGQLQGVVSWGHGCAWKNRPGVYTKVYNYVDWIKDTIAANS
Protocol: as §1, §2

hK2 [3] = target: T1, hK2; experiment: Effect of the peptides on the enzyme activity of hK2 (chromogenic substrate S-2302); assay type: biochemical; conditions: S-2302 200 μM, 0.17 μM hK2, 0-400 μM peptide; read-out: IC50 for hK2 inhibition

T1 sequence (P20151 25-261): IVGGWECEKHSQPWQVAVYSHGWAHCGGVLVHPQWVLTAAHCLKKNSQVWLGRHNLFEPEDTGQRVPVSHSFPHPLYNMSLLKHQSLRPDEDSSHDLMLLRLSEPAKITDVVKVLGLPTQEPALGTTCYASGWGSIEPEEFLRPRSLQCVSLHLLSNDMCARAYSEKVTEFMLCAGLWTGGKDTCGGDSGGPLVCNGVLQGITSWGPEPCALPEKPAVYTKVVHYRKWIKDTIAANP

inhibition of the binding of the phage carrying the corresponding peptide (hK2 [1]): inhibited efficiently
effect on activity of human trypsin 2 (trypsin 2): no inhibition
inhibition of hK2 enzyme activity (hK2 [2]): slight inhibition
effect on the enzyme activity of hK2 (hK2 [2]): significant reduction
effect on activity of α-chymotrypsin (α-chymotrypsin): no inhibition
effect on activity of plasmin (plasmin): no inhibition
effect on activity of thrombin (thrombin): no inhibition
effect on activity of bovine trypsin (bovine trypsin): no inhibition
effect on activity of PSA (PSA): no inhibition
effect on activity of plasma kallikrein (plasma kallikrein): no inhibition
effect on activity of urokinase (urokinase): no inhibition
effect on activity of human trypsin 1 (human trypsin 1): no inhibition
effect on activity of human trypsin 3 (trypsin 3): no inhibition
Substance: SRFKVWWAAG-OH [HK2p01, SRFKVWWAAG]

inhibition (percent inhibition of hK2) (hK2 [2]): 79%
Substance: 69 (SRFKVWWG) [compound 69]

effect on the enzyme activity of hK2 (hK2 [2]): did not show any effect
Substance: CFRQGCWVIT [HK2p04]

inhibition (percent inhibition of hK2) (hK2 [2]): 85%
Substance: 64 (SRFKVWWAAG) [compound 64]

inhibition (percent inhibition of hK2) (hK2 [2]): 78%
Substance: 63 (SRFKVWWAAG) [compound 63]

inhibition of the binding of the phage carrying the corresponding peptide (hK2 [1]): inhibited efficiently
effect on the enzyme activity of hK2 (hK2 [2]): did not show any effect
Substance: CYRMPTCMQRD [HK2p06]

inhibition (percent inhibition of hK2) (hK2 [2]): 79%
Substance: 55 (SRFKVWWAAG) [compound 55]

inhibition of the binding of the phage carrying the corresponding peptide (hK2 [1]): inhibited efficiently
effect on activity of human trypsin 2 (trypsin 2): no inhibition
inhibition of hK2 enzyme activity (hK2 [2]): slight inhibition
effect on the enzyme activity of hK2 (hK2 [2]): significant reduction
effect on activity of α-chymotrypsin (α-chymotrypsin): no inhibition
effect on activity of plasmin (plasmin): no inhibition
effect on activity of thrombin (thrombin): no inhibition
effect on activity of bovine trypsin (bovine trypsin): no inhibition
effect on activity of PSA (PSA): no inhibition
effect on activity of plasma kallikrein (plasma kallikrein): no inhibition
effect on activity of urokinase (urokinase): no inhibition
effect on activity of human trypsin 1 (human trypsin 1): no inhibition
effect on activity of human trypsin 3 (trypsin 3): no inhibition
Substance: PARRPFPVTA [HK2p03]

inhibition (percent inhibition of hK2) (hK2 [2]): 58%
Substance: 31 (GPARRPFPVTAG) [compound 31]

inhibition of the binding of the phage carrying the corresponding peptide (hK2 [1]): inhibited efficiently
effect on activity of human trypsin 2 (trypsin 2): no inhibition
inhibition of hK2 enzyme activity (hK2 [2]): slight inhibition
effect on the enzyme activity of hK2 (hK2 [2]): significant reduction
effect on activity of α-chymotrypsin (α-chymotrypsin): no inhibition
effect on activity of plasmin (plasmin): no inhibition
effect on activity of thrombin (thrombin): no inhibition
effect on activity of bovine trypsin (bovine trypsin): no inhibition
effect on activity of PSA (PSA): no inhibition
effect on activity of plasma kallikrein (plasma kallikrein): no inhibition
effect on activity of urokinase (urokinase): no inhibition
effect on activity of human trypsin 1 (human trypsin 1): no inhibition
effect on activity of human trypsin 3 (trypsin 3): no inhibition
Substance: AARRPFPAPS [HK2p02]

inhibition of the binding of the phage carrying the corresponding peptide (hK2 [1]): not inhibited
Substance: FRTCLRSWACM [HK2p05]

inhibition (percent inhibition of hK2) (hK2 [2]): 82%
Substance: 73 (SRFKVWWG) [compound 73]

effect of cyclic peptides on hK2 protease activity (hK2 [2]; FIG. 3): slight inhibitory effect
Substance: C3AARRPAPAPCG (CAARRPAPAPCG; disulfide 1-11 (inferred)) [BTK144-18c]

inhibition (percent inhibition of hK2) (hK2 [2]): 27%
Substance: 57 (SRFKVWWAAG) [compound 57]

inhibition (percent inhibition of hK2) (hK2 [2]): 49%
Substance: 15 (GPARRPFPVTAG) [compound 15]

IC50 (hK2 [3]): 2200 nM
type of inhibition of hK2 (hK2 [2]; Lineweaver-Burke Plot): competitive inhibitor
Substance: ARFKVWWAAG [SEQ ID NO 56, A, R ,F, K, V, W, W, A, A, G]

— US20090214427A1, “Novel peptides” (Licentia OY, priority 2004, published 2009)
